{
  "source": "paper PMC3615049",
  "about": "(Biochemistry, 2013)",
  "key": {"[1]": {"substrate": "COC1=CC(=O)C(C)=C(C/C=C(\\C)CCC=C(C)C)C1=O", "assay": "purified protein", "format": "biochemical, Homo sapiens", "details": "200 μM NADH, 5 μM enzyme, 25 °C, pH 7.0"}, "[2]": {"substrate": "COC1=CC(=O)C(C)=CC1=O", "assay": "purified protein", "format": "biochemical, Homo sapiens", "details": "200 μM NADH, 5 μM enzyme, 20 mM Tris pH 7.0 in H2O, 25 °C"}, "[3]": {"target": "the molecule itself", "assay": "SEC"}},
  "data": [
    {"protein": "GB1-hCLK-1 (human Clock-1 with an N-terminal immunoglobulin binding domain of protein G) (enzyme, UniProt Q99807 39-217, looked up) MTLDNISRAAVDRIIRVDHAGEYGANRIYAGQMAVLGRTSVGPVIQKMWDQEKDHLKKFNELMVTFRVRPTVLMPLWNVLGFALGAGTALLGKEGAMACTVAVEESIAHHYNNQIRTLMEEDPEKYEELLQLIKKFRDEELEHHDIGLDHDAELAPAYAVLKSIIQAGCRVAIYLSERL", "values": [
      {"measurement": "Km", "setting": "[1]", "value": 33.8, "unit": "µM"},
      {"measurement": "Vmax", "setting": "[1]", "value": 39.2, "unit": "µM/min"},
      {"measurement": "kcat/Km", "setting": "[1]", "value": 3870, "unit": "M⁻¹ s⁻¹"},
      {"measurement": "Km", "setting": "[2]", "value": 68.1, "unit": "µM"},
      {"measurement": "Vmax", "setting": "[2]", "value": 12.8, "unit": "µM/min"},
      {"measurement": "kcat/Km", "setting": "[2]", "value": 627, "unit": "M⁻¹ s⁻¹"},
      {"measurement": "stoichiometry N", "setting": "[3]", "value": 2}
    ]}
  ]
}
